Measured values published in patent publication US10314894B2, “Treatment of cardio-renal disease using PCSK6” (THE CLEVELAND CLINIC FOUNDATION, priority 2014, dated 2019).
Residue numbers refer to the chain shown, from its start.

How the values were obtained:
[1] = target: T1, corin mutant R801A (Homo sapiens, UniProt Q9Y5Q5, R801A); experiment: PCSK6-mediated corin activation in HEK293 cells, corin mutant R801A (control); assay type: cell-based; conditions: corin mutant R801A lacking the cleavage site
T1 construct: expressed in transfected cells; host or cells: HEK293
T1 sequence (Q9Y5Q5 1-1042 R801A): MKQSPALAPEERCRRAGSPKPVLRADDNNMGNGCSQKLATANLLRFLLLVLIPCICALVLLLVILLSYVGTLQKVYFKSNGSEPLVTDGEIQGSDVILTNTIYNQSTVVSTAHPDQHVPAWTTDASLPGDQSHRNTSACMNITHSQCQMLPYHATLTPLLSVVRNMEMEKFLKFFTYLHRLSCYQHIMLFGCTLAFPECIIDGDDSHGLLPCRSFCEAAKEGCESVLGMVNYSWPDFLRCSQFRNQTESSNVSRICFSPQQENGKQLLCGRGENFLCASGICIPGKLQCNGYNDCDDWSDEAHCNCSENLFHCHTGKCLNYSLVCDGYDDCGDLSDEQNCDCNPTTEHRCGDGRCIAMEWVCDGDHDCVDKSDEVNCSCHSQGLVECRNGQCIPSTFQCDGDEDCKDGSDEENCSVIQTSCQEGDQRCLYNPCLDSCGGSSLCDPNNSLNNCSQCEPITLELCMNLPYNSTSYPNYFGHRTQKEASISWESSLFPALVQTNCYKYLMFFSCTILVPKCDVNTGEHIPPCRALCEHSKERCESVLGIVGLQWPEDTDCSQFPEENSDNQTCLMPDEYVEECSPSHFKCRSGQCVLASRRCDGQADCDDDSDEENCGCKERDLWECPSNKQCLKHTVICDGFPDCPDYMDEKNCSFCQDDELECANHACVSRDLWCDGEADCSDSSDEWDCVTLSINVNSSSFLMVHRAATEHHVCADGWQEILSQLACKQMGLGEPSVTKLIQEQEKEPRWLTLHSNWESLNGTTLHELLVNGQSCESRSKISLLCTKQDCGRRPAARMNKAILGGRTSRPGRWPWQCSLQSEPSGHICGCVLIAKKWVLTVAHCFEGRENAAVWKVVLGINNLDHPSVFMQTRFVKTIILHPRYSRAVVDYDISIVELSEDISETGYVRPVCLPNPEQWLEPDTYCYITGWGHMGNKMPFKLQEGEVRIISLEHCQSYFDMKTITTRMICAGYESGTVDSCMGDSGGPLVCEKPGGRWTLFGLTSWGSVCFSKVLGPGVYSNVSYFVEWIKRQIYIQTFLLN
From the text: (§1) Plasmids expressing human corin WT and mutants R801A, S985A, T555I, Q568P, T555I/Q568P, K317E, S472G and R539C were reported previously. Dong, N. et al., J Biol Chem 289, 17909-17916 (2014); Knappe et al., J Biol Chem 278, 52363-52370 (2003); Wu et al., J Biol Chem 277, 16900-16905. (2002). Plasmids expressing human PCSK1-9 were made by cloning respective cDNAs into pcNDA3.1 vector. Recombinant corin and PCSK proteins encoded by these plasmids contained a C-terminal V5 or flag tag for protein detection in Western blotting.
(§2) HEK293 and HL-1 cells were transfected with corin or PCSK6 expression plasmids. After 48-72 h, cells were lysed in a buffer containing 25 mM Tris-HCl, pH 7.4, 150 mM NaCl, 1 mM EDTA, 1% (v/v) NP-40, and 1% (v/v) protease inhibitor cocktail. Recombinant corin and PCSK6 proteins were immunoprecipitated with an anti-V5 or anti-flag antibody. Western blotting was carried out to analyze corin expression and activation or PCSK6 expression with or without reducing agents. Percentage of corin activation (corin-p vs. corin fragments) was quantified by densitometric analysis of Western blots.

[2] = target: T2, corin mutant K317E (Homo sapiens, UniProt Q9Y5Q5, K317E); experiment: PCSK6-mediated corin activation in HEK293 cells, corin mutant K317E; assay type: cell-based; conditions: Western, densitometry
T2 construct: expressed in transfected cells; host or cells: HEK293
T2 sequence (Q9Y5Q5 1-1042 K317E): T1 sequence (Q9Y5Q5 1-1042 R801A) with K317E, A801R
From the text: as §1, §2

PCSK6-mediated activation cleavage [1]: no activation cleavage was detected
reduction in PCSK6-mediated corin activation compared with WT corin [2]: 39%
B1: proprotein convertase subtilisin/kexin-6 (protein, listed as Homo sapiens)
chain: MPPRAPPAPGPRPPPRAAAATDTAAGAGGAGGAGGAGGPGFRPLAPRPWRWLLLLALPAACSAPPPRPVYTNHWAVQVLGGPAEADRVAAAHGYLNLGQIGNLEDYYHFYHSKTFKRSTLSSRGPHTFLRMDPQVKWLQQQEVKRRVKRQVRSDPQALYFNDPIWSNMWYLHCGDKNSRCRSEMNVQAAWKRGYTGKNVVVTILDDGIERNHPDLAPNYDSYASYDVNGNDYDPSPRYDASNENKHGTRCAGEVAASANNSYCIVGIAYNAKIGGIRMLDGDVTDVVEAKSLGIRPNYIDIYSASWGPDDDGKTVDGPGRLAKQAFEYGIKKGRQGLGSIFVWASGNGGREGDYCSCDGYTNSIYTISVSSATENGYKPWYLEECASTLATTYSSGAFYERKIVTTDLRQRCTDGHTGTSVSAPMVAGIIALALEANSQLTWRDVQHLLVKTSRPAHLKASDWKVNGAGHKVSHFYGFGLVDAEALVVEAKKWTAVPSQHMCVAASDKRPRSIPLVQVLRTTALTSACAEHSDQRVVYLEHVVVRTSISHPRRGDLQIYLVSPSGTKSQLLAKRLLDLSNEGFTNWEFMTVHCWGEKAEGQWTLEIQDLPSQVRNPEKQGKLKEWSLILYGTAEHPYHTFSAHQSRSRMLELSAPELEPPKAALSPSQVEVPEDEEDYTAQSTPGSANILQTSVCHPECGDKGCDGPNADQCLNCVHFSLGSVKTSRKCVSVCPLGYFGDTAARRCRRCHKGCETCSSRAATQCLSCRRGFYHHQEMNTCVTLCPAGFYADESQKNCLKCHPSCKKCVDEPEKCTVCKEGFSLARGSCIPDCEPGTYFDSELIRCGECHHTCGTCVGPGREECIHCAKNFHFHDWKCVPACGEGFYPEEMPGLPHKVCRRCDENCLSCAGSSRNCSRCKTGFTQLGTSCITNHTCSNADETFCEMVKSNRLCERKLFIQFCCRTCLLAG
modifications: C-terminal FLAG tag
